From PMC8526623, “PHF3 regulates neuronal gene expression through the Pol II CTD reader domain SPOC” (Nature Communications, 2021) come the findings set out here.

Square brackets hold non-standard residues; d marks the D form. Ends that are not written are not given here. pS = N[C@@H](COP(=O)(O)O)C(=O)O; FAM = 5,6-carboxyfluorescein Bounds are passed on as bounds.

For assay [1], the target named is 2xpS2 CTD diheptapeptide, Atto-488 labeled. The assay can be described thus: fluorescence correlation spectroscopy (FCS); 15 nM Atto-488 labeled peptide with 40-0.2 µM SPOC, 20 °C; molar masses from diffusion times.
Assay [2] deals with 2xpS2pS5 CTD diheptapeptide, Atto-488 labeled. Described as above.
Assay [3] has as its target 2xpS5 CTD diheptapeptide, FAM-labeled. The assay can be described thus: fluorescence polarisation; fluorescence anisotropy; 10 nM FAM-labeled CTD peptide titrated with SPOC protein; 20 °C, 25 mM Tris-Cl pH 8, 25 mM NaCl, 1 mM DTT; one site saturation with non-specific binding model. In general terms: Polarisation of emitted light reports the rotation of a fluorescent probe.

Assay [4] has as its target 2xpS7 CTD diheptapeptide, FAM-labeled. Described as above.
In assay [5] the target is T1, 2xpS2 CTD diheptapeptide, FAM-labeled.
T1 construct: CTD diheptapeptide: two heptarepeats (Y1S2P3T4S5P6S7) of the C-terminal domain of RPB1, the largest Pol II subunit; source: synthetic peptide (Clonestar)
T1 peptide: {FAM}-Y[pS]PTSPSY[pS]PTSPS
The assay is described as above.

For assay [6], the target named is T2, 2xpS2pS7 CTD diheptapeptide, FAM-labeled.
T2 construct: CTD diheptapeptide: two heptarepeats (Y1S2P3T4S5P6S7) of the C-terminal domain of RPB1, the largest Pol II subunit; source: synthetic peptide (Clonestar)
T2 peptide: {FAM}-Y[pS]PTSP[pS]Y[pS]PTSP[pS]
The description is as above.

Assay [7] has as its target T3, 2xpS2pS5 CTD diheptapeptide, FAM-labeled.
T3 construct: CTD diheptapeptide: two heptarepeats (Y1S2P3T4S5P6S7) of the C-terminal domain of RPB1, the largest Pol II subunit; source: synthetic peptide (Clonestar)
T3 peptide: {FAM}-Y[pS]PT[pS]PSY[pS]PT[pS]PS
The description is as above.

Assay [8] addresses T4, PHF3 SPOC domain (1199-1356aa), bacterially expressed (human, UniProt Q92576 1199-1356).
T4 chain: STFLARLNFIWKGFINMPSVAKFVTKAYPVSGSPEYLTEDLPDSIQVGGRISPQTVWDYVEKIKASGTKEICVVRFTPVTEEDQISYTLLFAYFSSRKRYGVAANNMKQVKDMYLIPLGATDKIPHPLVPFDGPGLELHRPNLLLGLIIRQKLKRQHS
Description: FP; 100 mM NaCl.

Another assay has as its target T5, PHF3 SPOC R1248A mutant (human, UniProt Q92576 1199-1356, R1248A).
T5 sequence: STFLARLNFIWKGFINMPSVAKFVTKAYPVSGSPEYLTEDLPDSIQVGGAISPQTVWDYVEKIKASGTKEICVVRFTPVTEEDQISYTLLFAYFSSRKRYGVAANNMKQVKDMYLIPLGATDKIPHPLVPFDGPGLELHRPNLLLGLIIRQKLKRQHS
Description: FP; 25 mM NaCl.

In the case of “PHF3 SPOC domain (1199-1356aa), bacterially expressed (from UniProt Q92576 1199-1356) (domain or fragment)”, the stoichiometry N in assay [1] and in [2] was 1 each time. Further, the Kd was 20 µM in assay [3]; 26 µM in [4]; 1.6 µM in assay [5]; 0.8 µM in [6]; 4.8 µM in [7].

B1: 2xpS2 CTD diheptapeptide, FAM-labeled (peptide)
peptide: {FAM}-Y[pS]PTSPSY[pS]PTSPS
In turn, B1 had a Kd in [8] of 1.4 µM.

B2: 2xpS2pS5 CTD diheptapeptide, FAM-labeled (peptide)
peptide: {FAM}-Y[pS]PT[pS]PSY[pS]PT[pS]PS
As to B2, binding with PHF3 SPOC R1248A mutant was put at a Kd of 48.3 µM.

B3: 2xpS5 CTD diheptapeptide, FAM-labeled (peptide)
peptide: {FAM}-YSPT[pS]PSYSPT[pS]PS
For B3, in the assay with PHF3 SPOC R1248A mutant, the Kd came to 22.3 µM.

B4: PHF3 SPOC R1248A mutant (domain or fragment, human, UniProt Q92576 1199-1356, looked up)
chain: STFLARLNFIWKGFINMPSVAKFVTKAYPVSGSPEYLTEDLPDSIQVGGAISPQTVWDYVEKIKASGTKEICVVRFTPVTEEDQISYTLLFAYFSSRKRYGVAANNMKQVKDMYLIPLGATDKIPHPLVPFDGPGLELHRPNLLLGLIIRQKLKRQHS
notes: Expression, purification and tag cleavage are told only for SPOC in general; source: E. coli Rosetta2 (DE3), purified (told for SPOC); not shown: His6, N-terminal, cleaved
In the case of B4, the “fold reduction of binding against PHF3 SPOC WT” value in assay [5] (both partners purified), in assay [6] (both partners purified) and in assay [7] (both partners purified) was over 10 fold each time.

For orientation: stoichiometry N means a count of units in the complex or per binding partner. Broadly, the Kd is the constant that tells how readily two partners part at equilibrium. Low values mean a tighter complex, high ones a looser complex.
